Tested on: Arabidopsis thaliana T1 plants
Experiment: Topramezone tolerance of transgenic Arabidopsis thaliana T1 plants (pesticide damage grade by bleached leaf area, score, resistance evaluation)
Assay type: in vivo
Details: HPPD F372V mutants, Table 7
How it was run: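 Herbicide tolerance was judged per plant on a bleaching scale (grade 0 no bleaching to grade 3 fully bleached) 7 DAT. Topramezone doses were 0, 25, 50 and 100 g ai/ha on 18-day-old T1 and wild-type plants.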

| Molecule | Resistance evaluation (topramezone 25 g ai/ha (1x)) | Resistance evaluation (topramezone 100 g ai/ha (4x)) |
| --- | --- | --- |
| HvHPPDm-F372V: Hordeum vulgare HPPD mutant F372V, SEQ ID NO: 357 (protein, HvHPPDm-F372V Amino Acid Sequence) MPPTPTTPAATGAAAAVTPEHARPHRMVRFNPRSDRFHTLSFHHVEFWCADAASAAGRFAFALGAPLAARSDLSTGNSAHASQLLRSGSLAFLFTAPYANGCDAATASLPSFSADAARRFSADHGIAVRSVALRVADAAEAFRASRRRGARPAFAPVDLGRGFAFAEVELYGDVVLRFVSHPDGTDVPFLPGFEGVTNPDAVDYGLTRFDHVVGNVPELAPAAAYIAGFTGFHEFAEFTAEDVGTTESGLNSVVLANNSEGVLLPLNEPVHGTKRRSQIQTFLEHHGGPGVQHIAVASSDVLRTLRKMRARSAMGGFDFLPPPLPKYYEGVRRLAGDVLSEAQIKECQELGVLVDRDDQGVLLQIVTKPVGDRPTLFLEMIQRIGCMEKDERGEEYQKGGCGGFGKGNFSELFKSIEDYEKSLEAKQSAAVQGS | Highly resistant | Poorly resistant |
| BnHPPDm-F372V: Brassica napus HPPD mutant F372V, SEQ ID NO: 369 (protein, BnHPPDm-F372V Amino Acid Sequence) MGHENAAVCETQQHDDAASPGFKLVGFSKFVRKNPKSDKFKVKRFHHIEFWCGDATNVSRRFSWGLGMRFSAKSDLSTGNMVHASYLLTSGDLRFLFTAPYSPSLSAGEAQPSATASIPSFDHASCRSFFSSHGLGVRAVAIEVEDAESAFSISVANGAVPSSPPNVLNGAVTIAEVKLYGDVVLRYVSYYNGTVSFLPGFESVDDTSSFPLDYGIRRLDHAVGNVPELGPALTYLAGFTGFHQFAEFTADDVGTAESGLNSAVLANNDEMVLLPINEPVHGTKRKSQIQTFLEHNEGAGLQHLALMSEDIFRTLREMRKRSGVGGFDFMPSPPPTYYKNLKKRVGDVLSEEQIEECEELGILVDRDDQGTLLQIVTKPLGDRPTIFIEIIQRVGCMKRDEEGKVYQSGGCGGFGKGNFSELFKSIEEYEKTLEAKQLVG | Poorly resistant | Non-resistant |
| AtHPPDm-F372V: Arabidopsis thaliana HPPD mutant F372V, SEQ ID NO: 349 (protein, AtHPPDm-F372V Amino Acid Sequence) MGHQNAAVSENQNHDDGAASSPGFKLVGFSKFVRKNPKSDKFKVKRFHHIEFWCGDATNVARRFSWGLGMRFSAKSDLSTGNMVHASYLLTSGDLRFLFTAPYSPSLSAGEIKPTTTASIPSFDHGSCRSFFSSHGLGVRAVAIEVEDAESAFSISVANGAIPSSPPIVLNEAVTIAEVKLYGDVVLRYVSYKAEDTEKSEFLPGFERVEDASSFPLDYGIRRLDHAVGNVPELGPALTYVAGFTGFHQFAEFTADDVGTAESGLNSAVLASNDEMVLLPINEPVHGTKRKSQIQTYLEHNEGAGLQHLALMSEDIFRTLREMRKRSSIGGFDFMPSPPPTYYQNLKKRVGDVLSDDQIKECEELGILVDRDDQGTLLQIVTKPLGDRPTIFIEIIQRVGCMMKDEEGKAYQSGGCGGFGKGNFSELFKSIEEYEKTLEAKQLVG | Poorly resistant | Non-resistant |
| OsHPPDm-F372V: Oryza sativa HPPD mutant F372V, SEQ ID NO: 363 (protein, OsHPPDm-F372V Amino Acid Sequence) MPPTPTPTATTGAVSAAAAAGENAGFRLVGHRRFVRANPRSDRFQALAFHHVELWCADAASAAGRFAFALGAPLAARSDLSTGNSAHASLLLRSASVAFLFTAPYGGDHGVGADAATTASIPSFSPGAARRFAADHGLAVHAVALRVADAADAFRASVAAGARPAFQPADLGGGFGLAEVELYGDVVLRFVSHPDGADAPFLPGFEGVSNPGAVDYGLRRFDHVVGNVPELAPVAAYISGFTGFHEFAEFTAEDVGTAESGLNSVVLANNAETVLLPLNEPVHGTKRRSQIQTYLDHHGGPGVQHIALASDDVLGTLREMRARSAMGGFEFLAPPPPNYYDGVRRRAGDVLSEEQINECQELGVLVDRDDQGVLLQIVTKPVGDRPTFFLEMIQRIGCMEKDESGQEYQKGGCGGFGKGNFSELFKSIEEYEKSLEAKQAPTVQGS | Moderately resistant | Non-resistant |
| GmHPPDm-F372V: Glycine max HPPD mutant F372V, SEQ ID NO: 365 (protein, GmHPPDm-F372V Amino Acid Sequence) MPMYTPSLSAPSSNHIQPSVTLPLYITTTKLNLKQQHHTTPMPIPMCNEIQAQAQAQAQPGFKLVGFKNFVRTNPKSDRFQVNRFHHIEFWCTDATNASRRFSWGLGMPIVAKSDLSTGNQIHASYLLRSGDLSFLFSAPYSPSLSAGSSAASSASIPSFDAATCLAFAAKHGFGVRAIALEVADAEAAFSASVAKGAEPASPPVLVDDRTGFAEVRLYGDVVLRYVSYKDAAPQAPHADPSRWFLPGFEAAASSSSFPELDYGIRRLDHAVGNVPELAPAVRYLKGFSGFHEFAEFTAEDVGTSESGLNSVVLANNSETVLLPLNEPVYGTKRKSQIETYLEHNEGAGVQHLALVTHDIFTTLREMRKRSFLGGFEFMPSPPPTYYANLHNRAADVLTVDQIKQCEELGILVDRDDQGTLLQIVTKPVGDRPTIFIEIIQRIGCMVEDEEGKVYQKGACGGFGKGNFSELFKSIEEYEKTLEAKRTA | Poorly resistant | Non-resistant |
| SbHPPDm-F372V: Sorghum bicolor HPPD mutant F372V, SEQ ID NO: 361 (protein, SbHPPDm-F372V Amino Acid Sequence) MPPTPTTAAATGAAVAAASAEQAAFRLVGHRNFVRVNPRSDRFHTLAFHHVELWCADAASAAGRFSFGLGAPLAARSDLSTGNTAHASLLLRSGALAFLFTAPYAHGADAATASLPSFSAAEARRFAADHGLAVRAVALRVADAEDAFRASVAAGARPAFEPVELGLGFRLAEVELYGDVVLRYVSYPDDADASFLPGFVGVTSPGAADYGLRRFDHIVGNVPELAPAAAYFAGFTGFHEFAEFTAEDVGTTESGLNSMVLANNAENVLLPLNEPVHGTKRRSQIQTYLDHHGGPGVQHMALASDDVLRTLREMQARSAMGGFEFMAPPAPEYYDGVRRRAGDVLTEAQIKECQELGVLVDRDDQGVLLQIVTKPVGDRPTLFLEIIQRIGCMEKDEKGQEYQKGGCGGFGKGNFSQLFKSIEDYEKSLEAKQAAAAQGS | Poorly resistant | Non-resistant |
| MsHPPDm-F372V: Medicago sativa HPPD mutant F372V, SEQ ID NO: 373 (protein, MsHPPDm-F372V Amino Acid Sequence) MAIETETQTQTGFKLVGFKNFVRANPKSDRFKVKRFHHVEFWCTDATNTARRFSHGLGMPIVAKSDLSTGNQTHASYLLRSGDLNFLFSAAYSPSISLSSPSSTAAIPTFSASNCFSFSASHGLAVRAVAVEVEDAELAFTTSVNNGAIPSSPPVILENHVKLAEVRLYGDVVLRYVSYNDPNPNQNPNLLFLPGFERVSDESSNSSLDFGIRRLDHAVGNVPELSSAVKYVKDFTGFHEFAEFTAEDVGTSESGLNSVVLANNEETVLLPMNEPVYGTKRKSQIETYLEHNEGAGLQHLALKSEDIFRTLREMRKRSGVGGFEFMPSPPVTYYRNLKNRVGDVLSDEQIKECEELGILVDRDDQGTLLQIVTKPIGDRPTIFIEIIQRVGCMLKDEEGKEYQKGGCGGFGKGNFSELFKSIEEYEKTLETRRTA | Poorly resistant | Non-resistant |
| HaHPPDm-F372V: Helianthus annuus HPPD mutant F372V, SEQ ID NO: 371 (protein, HaHPPDm-F372V Amino Acid Sequence) MGTEATVAAVVAGDESDHPTSAFKLVGFKNFIRTNPMSDKFTVKNFHHIEFWCSDATNTARRFSWGLGMPIIFKSDLSTGNSTHASYLLRSGHLNFLFTAPYSPSISPTTTTASIPTFSHSASRHFTATHGLAVRAIAVEVEDAETAFAVSVANGAKPSSPPVTLGHNDVVLSEVKLYGDVVLRYVSYKNNTNNNNNNDNDNYIFLPGFEAMDKTSSFQELDYGIRRLDHAVGNVPELAPAVDYVKSFTGFHEFAEFTAEDVGTSESGLNSVVLACNSEMVLIPMNEPVYGTKRKSQIQTYLEHNEGAGVQHLALASEDIFRTLREMRKRSGVGGFEFMPSPPPTYYRNLKSRAGDVLSDEQIKECEELGILVDRDDQGTLLQIVTKPVGDRPTIFIEIIQRVGCMVKDDEGKVQQKAGCGGFGKGNFSELFKSIEEYEKTLEARSTTAA | Poorly resistant | Non-resistant |
| CaHPPDm-F372V: Cicer arietinum HPPD mutant F372V, SEQ ID NO: 367 (protein, CaHPPDm-F372V Amino Acid Sequence) MGTIETQTGFKLVGFNNFVRTNPKSDRFKVKRFHHVEFWCPDATNTARRFSWGLGMPIVAKSDLSTGNQTHASYLLRSGDLNFLFTAAYSPSISLSAPHPTASIPSFSAPTSFAFSASHGLGVRAVAIEVDDAEFAYTTSVNHGAIPSSPPVVLDNRVKLAEVQLYGDVVLRYVSYNDPIETSNPNPNHWFLPGFEPVEETSSNQSIDFGIQRLDHAVGNVPELSSALNYVKQFTGFHEFAEFTAEDVGTSESGLNSTVLANNEETVLLPMNEPVYGTKRKSQIQTYLEHNEGAGLQHLALMSNDIFKTLREMRKRSGIGGFEFMPSPPPTYYSNLKKRVGDVLNDEQIKECEELGILVDKDDQGTLLQIVTKPVGDRPTIFIEIIQRVGCMLKDDEGKEYQKGGCGGFGKGNFSELFKSIEEYEKTLEIKRTA | Poorly resistant | Non-resistant |
| SiHPPDm-F372V: Setaria italica HPPD mutant F372V, SEQ ID NO: 359 (protein, SiHPPDm-F372V Amino Acid Sequence) MPPTPTPAAAAPGAAAAPAAGDQAAFRLVGHRGFVRVNPRSDRFHTLSFHHVELWCADATSAAGRFSFGLGAPLAARSDLSTGNSAHASLLLRSGSLAFLFTAPYAHGVDAATASLPSFSAPAARSFAADHGLAVRAIGLRVADAEDAFRASVAAGARPAFKPVELGLGFRLAEVELYGDVVLRYVSYPDAEDAPFLPGFENVNNPGALNYGLRRFDHIVGNVPELAPVAAYVAGFTGFHEFAEFTAEDVGTAESGLNSMVLANNSETVLIPLNEPVHGTKRRSQIQTFLDHNGGPGVQHIALASDDVLRTLREMQARSAMGGFEFMAAPPPDYYEGVRRRAGDVLSEAQIKECQELGVLVDRDDQGVLLQIVTKPVGDRQTLFLEIIQRIGCMEKDEQGQEYQKGGCGGFGKGNFSQLFKSIEDYEKSLESKQAAAVQGS | Moderately resistant | Poorly resistant |

— patent US20230212587A1, “Mutant Hydroxyphenylpyruvate Dioxygenase Polypeptide, Encoding Gene Thereof and Use Therefor” (Beijing Dabeinong Biotechnology Co., Ltd., priority 2019, published 2023)
